We go through 1 molecule from US20210292423A1 (published 2021).

The Kd is the equilibrium constant for the complex coming apart.

The target in assay [1] is T1, human CD3ε/δ-Fc fusion protein (soluble recombinant CD3ε/δ complex) (human, UniProt P04234 22-105).
T1 construct: also called huCD3ε/δ; huCD3; not shown: hinge, CH2, CH3 of human IgG with tag
Briefly: SPR Biacore. (In general: In SPR one partner is held on a chip, and binding of the other changes the refractive index at the surface.)

The target in assay [2] is T2, human CD123 Strep-II tagged Fc-fusion protein (human).
T2 construct: also called human CD123-Fc; recombinant CD123
Nature of the assay: SPR Biacore.

In assay [3] the target is T3, human CD123 (IL3RA) on cells (human, UniProt P26951 19-378). Nature of the assay: cell-based or functional assay.
The target in assay [4] is T3, human CD123 (IL3RA) on cells. Briefly: cell-based or functional assay. The source holds these as a separate data set.

T3 sequence (P26951 19-378): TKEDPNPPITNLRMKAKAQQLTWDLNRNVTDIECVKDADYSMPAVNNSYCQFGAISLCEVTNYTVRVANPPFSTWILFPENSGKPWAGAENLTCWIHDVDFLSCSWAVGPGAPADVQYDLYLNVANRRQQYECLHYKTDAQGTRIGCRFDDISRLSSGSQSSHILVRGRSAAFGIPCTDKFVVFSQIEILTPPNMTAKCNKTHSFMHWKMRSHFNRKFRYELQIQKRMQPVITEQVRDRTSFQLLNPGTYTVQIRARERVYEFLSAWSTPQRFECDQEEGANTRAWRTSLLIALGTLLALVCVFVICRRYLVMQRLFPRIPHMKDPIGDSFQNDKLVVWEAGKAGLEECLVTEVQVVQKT
T2 sequence (chain, as listed by the source limits assumed): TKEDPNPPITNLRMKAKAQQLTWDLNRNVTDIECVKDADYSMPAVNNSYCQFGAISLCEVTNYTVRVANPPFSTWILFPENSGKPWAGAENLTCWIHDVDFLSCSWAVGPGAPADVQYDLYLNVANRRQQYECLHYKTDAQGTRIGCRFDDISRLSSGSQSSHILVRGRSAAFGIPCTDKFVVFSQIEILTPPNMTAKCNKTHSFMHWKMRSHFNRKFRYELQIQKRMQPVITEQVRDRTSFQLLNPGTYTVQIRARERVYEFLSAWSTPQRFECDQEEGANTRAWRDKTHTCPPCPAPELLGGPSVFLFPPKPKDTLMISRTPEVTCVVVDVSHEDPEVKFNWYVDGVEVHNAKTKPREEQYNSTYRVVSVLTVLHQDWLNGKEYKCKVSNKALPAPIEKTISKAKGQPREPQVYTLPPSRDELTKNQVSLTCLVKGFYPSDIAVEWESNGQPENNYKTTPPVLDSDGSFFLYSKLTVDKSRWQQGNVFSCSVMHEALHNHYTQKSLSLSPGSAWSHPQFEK
T1 sequence (chain, as listed by the source mutant, chain 1 of 2): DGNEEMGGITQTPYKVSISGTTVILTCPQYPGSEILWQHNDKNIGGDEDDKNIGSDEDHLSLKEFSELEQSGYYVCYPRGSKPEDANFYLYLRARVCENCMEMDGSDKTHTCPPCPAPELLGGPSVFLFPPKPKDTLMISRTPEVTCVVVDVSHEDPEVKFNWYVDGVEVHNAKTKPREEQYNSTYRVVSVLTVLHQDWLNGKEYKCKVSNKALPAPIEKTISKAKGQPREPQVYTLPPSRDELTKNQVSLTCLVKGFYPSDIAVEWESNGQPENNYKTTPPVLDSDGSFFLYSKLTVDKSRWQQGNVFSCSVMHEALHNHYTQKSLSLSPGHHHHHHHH
T1 sequence (P04234 22-105, stated change not applied, chain 2 of 2): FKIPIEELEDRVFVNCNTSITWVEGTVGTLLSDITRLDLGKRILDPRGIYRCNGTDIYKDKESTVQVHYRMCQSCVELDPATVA

B1: CODV-Fab hz4B4x3E3 antibody-like binding protein (bispecific antibody)
light: QFVLTQPNSVSTNLGSTVKLSCKRNTGNIGSNYVNWYQQHEGRSPTTMIYRDDKRPDGVPDRFSGSIDRSSNSALLTINNVQTEDEADYFCQSYSSGINIIFGGGTKLTVLGQPKAAPDVVMTQTPVSLSVSVGGRVSISCRSSQSLVHDNGNTYLSWSLQKPGKSPKVLIYKVSNRFSGVSSRFTGSGSGTDFTLKISSVQPDDLGVYYCGQGTQYPFTFGSGTKLEIKTKGPSRTVAAPSVFIFPPSDEQLKSGTASVVCLLNNFYPREAKVQWKVDNALQSGNSQESVTEQDSKDSTYSLSSTLTLSKADYEKHKVYACEVTHQGLSSPVTKSFNRGEC
heavy: QVQLVETGGGLVKPGQSLKLTCATSGFTFSNAWMHWVRQSPEKGLEWVAQIKARSNNYATYYAESVKGRFTISRDDSKSTIYLQMNSLTPEDTAIYYCRGTYYASKPFDYWGQGVMVTVSSSQVQLQESGPGLVQPSQTLSLTCTVSGFSLTTYDVHWVRQPPGKGLEWMGRIQNGGITDYNSALKSRLIISRDTSKSQVFLKMNSVQTEDTAMYFCAKTGSYFYAFDHWGQGTLVTVSSRTASTKGPSVFPLAPSSKSTSGGTAALGCLVKDYFPEPVTVSWNSGALTSGVHTFPAVLQSSGLYSLSSVVTVPSSSLGTQTYICNVNHKPSNTKVDKKVEPKSCDKTHTHHHHHH
notes: also called hz4B4 × 3E3 CODV-Fab
In the case of B1, the Kd in assay [1] was determined as 7 nM. For the same molecule, the equilibrium dissociation constant (Kd) in assay [2] worked out at 4.8 nM. Besides, in assay [3], the “Cytotoxicity (THP-1) geomean EC50” value is 2 ng/mL and the “Cytotoxicity (THP-1) geomean EC50 [pM]” value stood at 26.5 pM. In addition, the “Cytotoxic assay (THP cells) EC50 [pM]” value in assay [4] stood at 26.5 pM.
